# Biological target: SARS-CoV-2 S (SARS-CoV-2) (UniProt P0DTC2)
# Assay: SPR Biacore T200, hmAb captured, S injected, 1:1 fit
row,Substance,Kd [nM]
1,CC40.8 (antibody),6.69
2,CV3-25 (antibody),13.2
3,S2P6 (antibody),32

# Source: patent US20240270828A1
